Laboratory results as given in PMC9342898.
Where two headings read alike, the source gives them in different places. Values belong to the molecule of their own block, whether it stands above or below them.

Columns and labels:
[1] = target: Full-length MVI NI
[2] = target: F-actin (UniProt P68135); assay: pull-down; actin isolation: 5 µM MVI ± 15 µM NDP52 with 5 µM F-actin (20% biotinylated), streptavidin Dynabeads, 150 mM NaCl, 50 mM Tris.HCl pH 7.5, 1 mM MgCl2, 1 mM DTT, RT; SDS–PAGE of pellet and supernatant
[3] = target: MVI_(1–1060)
[4] = target: MVI_(TAIL(NI)); assay: FRET or BRET; stopped flow; 1 µM FITC-MVI_TAIL(NI) and 1 µM AF555-MVI_TAIL(NI) pre-mixed, then mixed with an excess of unlabelled NDP52, pseudo-first order; 25°C, 50 mM Tris–HCl pH 7.5, 150 mM NaCl, 1 mM DTT, 3 mM MgCl2
[5] = target: MVI_(TAIL(NI)); assay: as above; remark: listed apart in the source
[6] = target: MVI_(814–1060); assay: FRET or BRET; titration of Alexa555-CBD against 1 µM FITC-labelled N-terminal tail fragment, plate reader, 25°C, 50 mM Tris·HCl pH 7.5, 150 mM NaCl, 1 mM DTT; fitted to a quadratic binding equation
[7] = target: MVI_(814–1091) (containing the LI); assay: as above
[8] = target: MVI_(TAIL(NI))
[9] = target: MVI_(TAIL(NI)); assay: FRET or BRET; stopped flow; 1 µM FITC-MVI_TAIL(NI) mixed with excess AF555-NDP52, pseudo-first order; 25°C, 50 mM Tris–HCl pH 7.5, 150 mM NaCl, 1 mM DTT, 3 mM MgCl2
[10] = target: T1, nuclear dot protein 52 (NDP52), Q13137; assay: SEC-MALS; 100 µl of 2 mg/ml protein on Superdex 200 (30 × 1 cm), 150 mM NaCl, 50 mM Tris.HCl pH 7.5, 1 mM DTT, room temperature; conditions: remark: other sources report otherwise
T1 chain: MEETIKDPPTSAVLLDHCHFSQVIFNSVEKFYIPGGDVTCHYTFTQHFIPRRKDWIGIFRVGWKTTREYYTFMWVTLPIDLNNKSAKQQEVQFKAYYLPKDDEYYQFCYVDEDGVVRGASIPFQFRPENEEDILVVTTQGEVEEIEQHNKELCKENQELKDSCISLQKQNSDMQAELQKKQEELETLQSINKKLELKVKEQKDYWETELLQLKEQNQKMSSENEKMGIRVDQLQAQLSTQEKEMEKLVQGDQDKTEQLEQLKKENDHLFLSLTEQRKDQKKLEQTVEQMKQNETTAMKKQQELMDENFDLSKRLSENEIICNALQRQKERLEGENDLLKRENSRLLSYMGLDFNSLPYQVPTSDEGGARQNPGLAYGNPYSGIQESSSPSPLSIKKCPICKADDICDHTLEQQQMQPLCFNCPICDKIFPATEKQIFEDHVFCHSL

kcat of the steady-state actin-activated ATPase of full-length MVI in the presence of dimeric NDP52 [1]: 2.11 s⁻¹
kcat of the steady-state actin-activated ATPase of full-length MVI in the presence of monomeric tDab2 [1]: 2.55 s⁻¹
percent of MVI bound to actin [2]: 50%
percent of MVI bound to actin (with an excess of NDP52) [2]: > 80%
Molecule: Full-length MVI NI (natural protein)

kcat of the steady-state actin-activated ATPase of MVI 1-1060 [3]: 2.79 s⁻¹
Molecule: MVI_(1–1060) (domain or fragment)

observed rate constant of the FRET increase (dimerization after adding NDP52) [4]: 2.45 s⁻¹
observed rate constant of the FRET increase (dimerization after adding NDP52) [5]: 2.2 s⁻¹
Molecule: MVI_(TAIL(NI)) (domain or fragment)

Kd [6]: 4.8 µM
Kd [7]: 5.98 µM
Molecule: Myosin VI cargo binding domain (CBD) (domain or fragment)

rate constant of the fluorescence decrease of Cy3B-calmodulin bound to MVI TAIL(NI) on mixing with excess NDP52 (unfolding; independent of NDP52 concentration) [8]: 1.95 s⁻¹
Kd [9]: 1.94 µM
koff [9]: 3.2 s⁻¹
kon [9]: 1.65e+06 M⁻¹ s⁻¹
rate constant of the second phase (unfolding after binding, independent of NDP52 concentration) [9]: 2.2 s⁻¹
B1: nuclear dot protein 52 (NDP52) (natural protein)
chain: MEETIKDPPTSAVLLDHCHFSQVIFNSVEKFYIPGGDVTCHYTFTQHFIPRRKDWIGIFRVGWKTTREYYTFMWVTLPIDLNNKSAKQQEVQFKAYYLPKDDEYYQFCYVDEDGVVRGASIPFQFRPENEEDILVVTTQGEVEEIEQHNKELCKENQELKDSCISLQKQNSDMQAELQKKQEELETLQSINKKLELKVKEQKDYWETELLQLKEQNQKMSSENEKMGIRVDQLQAQLSTQEKEMEKLVQGDQDKTEQLEQLKKENDHLFLSLTEQRKDQKKLEQTVEQMKQNETTAMKKQQELMDENFDLSKRLSENEIICNALQRQKERLEGENDLLKRENSRLLSYMGLDFNSLPYQVPTSDEGGARQNPGLAYGNPYSGIQESSSPSPLSIKKCPICKADDICDHTLEQQQMQPLCFNCPICDKIFPATEKQIFEDHVFCHSL
modifications: Alexa Fluor 555 label in the stopped-flow FRET assay (site not stated); unlabelled elsewhere

stoichiometry N [10]: 2
B2: nuclear dot protein 52 (NDP52), Q13137 1-446 (natural protein)
chain: MEETIKDPPTSAVLLDHCHFSQVIFNSVEKFYIPGGDVTCHYTFTQHFIPRRKDWIGIFRVGWKTTREYYTFMWVTLPIDLNNKSAKQQEVQFKAYYLPKDDEYYQFCYVDEDGVVRGASIPFQFRPENEEDILVVTTQGEVEEIEQHNKELCKENQELKDSCISLQKQNSDMQAELQKKQEELETLQSINKKLELKVKEQKDYWETELLQLKEQNQKMSSENEKMGIRVDQLQAQLSTQEKEMEKLVQGDQDKTEQLEQLKKENDHLFLSLTEQRKDQKKLEQTVEQMKQNETTAMKKQQELMDENFDLSKRLSENEIICNALQRQKERLEGENDLLKRENSRLLSYMGLDFNSLPYQVPTSDEGGARQNPGLAYGNPYSGIQESSSPSPLSIKKCPICKADDICDHTLEQQQMQPLCFNCPICDKIFPATEKQIFEDHVFCHSL
modifications: here or on the partner: Alexa Fluor 555 label in the stopped-flow FRET assay (site not stated); unlabelled elsewhere; Alexa Fluor 555 label in the stopped-flow FRET assay (site not stated); unlabelled elsewhere
